Consider one substance from US6969760.

Assay [1] addresses IFN-γ receptor on 2C4 and mutant γ-1 cells (human HT1080-derived) (human) (UniProt P15260). In words: binding of 125I-labeled IFN-γ diluted to a lower specific activity, cells at 0° C.
The target is the same in assay [2]. Briefly: binding of 125I-labeled IFN-γ to 10^6 2C4 or γ-1 cells, 90 min at 0° C., non-specific binding subtracted.

With “125I-labeled human IFN-γ (from UniProt P01579 24-166) (ligand)”, the receptors per cell (saturation binding) (receptors per cell) in assay [1] is 10000. The same substance came in with a receptors per cell (specific binding at the highest IFN-γ concentration) (receptors per cell) in assay [2] of 6000.
